# Test results: publication PMC5586252, “PP2A-B′ holoenzyme substrate recognition, regulation and role in cytokinesis” (Cell Discovery, 2017)
# B1: GST-pCyk4 (1–177), Plk1-phosphorylated (domain or fragment, human, UniProt Q9H0H5 1-177, looked up)
# chain: MDTMMLNVRNLFEQLVRRVEILSEGNEVQFIQLAKDFEDFRKKWQRTDHELGKYKDLLMKAETERSALDVKLKHARNQVDVEIKRRQRAEADCEKLERQIQLIREMLMCDTSGSIQLSEEQKSALAFLNRGQPSSSNAGNKRLSTIDESGSILSDISFDKTDESLDWDSSLVKTFKL
# modifications: phosphorylated by Plk1: mono- to pentakis-phosphorylated forms; sites of the tetrakis form S149, S157, S164 and S170
# notes: also called GST-Cyk4; source: phosphorylated by Plk1; not shown: GST, N-terminal, kept
# How the values were obtained:
# [1] = molecular target: B′γ1 regulatory subunit (UniProt Q13362-2 1-449); assay: ITC; 1 mM peptide titrated to 20–50 μM B′γ1; 20 mM HEPES pH 7.5, 200 mM NaCl; VP-ITC; conditions: both partners purified
# [2] = molecular target: T1, B′ε regulatory subunit (UniProt Q16537 1-467); assay: pull-down; about 10 μg GST-tagged B′-binding motif or GST-pCyk4 on glutathione (GS4B) resin; 10 μg holoenzyme, B′ε or PR70 added; 25 mM Tris pH 8.0, 150 mM NaCl, 3 mM DTT; SDS-PAGE, Coomassie; conditions: both partners purified
# T1 construct: PP2A regulatory subunit B′ε, full-length; prey in a GST pull-down, so probably with the GST tag cleaved by TEV; source: E. coli DH5α, purified (GS4B, anion exchange, gel filtration)
# T1 sequence (Q16537 whole entry): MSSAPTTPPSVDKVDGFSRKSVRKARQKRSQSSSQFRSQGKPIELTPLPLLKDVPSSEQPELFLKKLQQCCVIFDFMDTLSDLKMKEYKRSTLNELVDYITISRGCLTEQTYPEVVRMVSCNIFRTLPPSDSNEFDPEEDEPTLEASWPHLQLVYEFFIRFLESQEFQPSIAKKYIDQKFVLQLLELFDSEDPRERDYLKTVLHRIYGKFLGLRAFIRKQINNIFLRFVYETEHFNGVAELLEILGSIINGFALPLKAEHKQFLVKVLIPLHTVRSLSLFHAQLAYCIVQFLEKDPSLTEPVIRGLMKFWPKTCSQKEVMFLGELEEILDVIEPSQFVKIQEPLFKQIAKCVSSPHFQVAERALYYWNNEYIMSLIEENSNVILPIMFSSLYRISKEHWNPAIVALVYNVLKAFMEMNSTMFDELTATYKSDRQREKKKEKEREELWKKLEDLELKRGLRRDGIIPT
Binder,Kd [1] [nM],fold stronger binding than the native Cyk4 peptide [1] [fold],binding result [2]
"LSTIDEEGS [Cyk4 S149E peptide (synthetic, phosphomimetic)]",1590,15,–
B1,–,–,binds
